# Data from patent US20100196385A1 (AstraZeneca / MedImmune, published 2010).
# T1: human Dll1 (human, UniProt O00548 18-723)
# T1 construct: whole, on cells
# T1 sequence (looked up): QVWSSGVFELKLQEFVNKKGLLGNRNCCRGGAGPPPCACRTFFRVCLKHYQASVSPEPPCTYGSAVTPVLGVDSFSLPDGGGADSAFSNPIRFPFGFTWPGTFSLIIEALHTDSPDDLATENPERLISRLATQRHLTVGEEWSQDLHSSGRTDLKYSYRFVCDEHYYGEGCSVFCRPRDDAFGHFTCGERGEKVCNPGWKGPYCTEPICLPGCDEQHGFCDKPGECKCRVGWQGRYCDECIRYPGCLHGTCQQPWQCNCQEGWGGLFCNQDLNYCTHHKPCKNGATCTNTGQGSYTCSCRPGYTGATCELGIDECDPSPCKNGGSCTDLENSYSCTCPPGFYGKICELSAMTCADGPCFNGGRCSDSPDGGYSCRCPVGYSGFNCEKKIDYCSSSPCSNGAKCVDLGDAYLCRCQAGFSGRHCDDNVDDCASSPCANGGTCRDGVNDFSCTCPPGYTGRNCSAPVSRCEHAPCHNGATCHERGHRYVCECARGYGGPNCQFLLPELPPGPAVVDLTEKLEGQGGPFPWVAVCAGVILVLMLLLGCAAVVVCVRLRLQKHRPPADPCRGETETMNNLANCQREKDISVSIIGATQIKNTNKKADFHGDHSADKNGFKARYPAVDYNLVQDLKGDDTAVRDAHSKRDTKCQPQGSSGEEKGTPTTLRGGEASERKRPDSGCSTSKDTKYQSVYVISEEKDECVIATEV
# Legend:
# full length human DLL4 [1] = target: T2, full length human DLL4 (human, UniProt Q9NR61 27-685); experiment: FACS titration, HEK293 cells with human DLL4
# T2 construct: whole, on cells; also called native DLL4 expressed in HEK293 cells
# T2 sequence (Q9NR61 27-685): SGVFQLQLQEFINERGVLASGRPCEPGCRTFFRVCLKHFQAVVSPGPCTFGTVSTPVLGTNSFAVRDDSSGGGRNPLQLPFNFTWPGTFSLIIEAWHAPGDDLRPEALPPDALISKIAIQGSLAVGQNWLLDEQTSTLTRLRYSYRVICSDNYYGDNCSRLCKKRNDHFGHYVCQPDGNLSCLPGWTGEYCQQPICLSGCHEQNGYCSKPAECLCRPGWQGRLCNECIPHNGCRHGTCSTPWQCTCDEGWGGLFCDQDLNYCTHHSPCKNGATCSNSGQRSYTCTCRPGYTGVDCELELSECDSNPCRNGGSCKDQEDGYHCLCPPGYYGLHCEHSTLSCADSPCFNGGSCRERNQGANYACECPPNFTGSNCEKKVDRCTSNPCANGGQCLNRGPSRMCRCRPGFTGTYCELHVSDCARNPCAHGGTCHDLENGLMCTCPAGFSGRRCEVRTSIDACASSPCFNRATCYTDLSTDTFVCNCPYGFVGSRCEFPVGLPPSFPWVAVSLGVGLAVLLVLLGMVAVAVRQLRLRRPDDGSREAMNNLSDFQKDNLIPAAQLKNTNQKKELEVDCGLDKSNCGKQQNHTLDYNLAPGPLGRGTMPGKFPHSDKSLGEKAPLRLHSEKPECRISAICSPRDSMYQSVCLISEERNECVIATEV
# Outline: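 Antibody titration on HEK293 cells expressing full-length human DLL4, detected with anti-human IgG-Fc-Cy5 plus 7AAD for 30 minutes at 4° C. by flow cytometry. KD estimated by nonlinear fit of mean fluorescence vs total mAb concentration, with receptor number, background and proportionality constant floating.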
# human Dll1 = target: T1, human Dll1; experiment: FACS, HEK-293 cells stably overexpressing human Dll1
# human Jagged1 = target: T3, human Jagged1 (human, UniProt P78504 34-1218); experiment: FACS, HEK-293 cells stably overexpressing human Jagged1
# T3 construct: whole, on cells
# T3 sequence (P78504 34-1218): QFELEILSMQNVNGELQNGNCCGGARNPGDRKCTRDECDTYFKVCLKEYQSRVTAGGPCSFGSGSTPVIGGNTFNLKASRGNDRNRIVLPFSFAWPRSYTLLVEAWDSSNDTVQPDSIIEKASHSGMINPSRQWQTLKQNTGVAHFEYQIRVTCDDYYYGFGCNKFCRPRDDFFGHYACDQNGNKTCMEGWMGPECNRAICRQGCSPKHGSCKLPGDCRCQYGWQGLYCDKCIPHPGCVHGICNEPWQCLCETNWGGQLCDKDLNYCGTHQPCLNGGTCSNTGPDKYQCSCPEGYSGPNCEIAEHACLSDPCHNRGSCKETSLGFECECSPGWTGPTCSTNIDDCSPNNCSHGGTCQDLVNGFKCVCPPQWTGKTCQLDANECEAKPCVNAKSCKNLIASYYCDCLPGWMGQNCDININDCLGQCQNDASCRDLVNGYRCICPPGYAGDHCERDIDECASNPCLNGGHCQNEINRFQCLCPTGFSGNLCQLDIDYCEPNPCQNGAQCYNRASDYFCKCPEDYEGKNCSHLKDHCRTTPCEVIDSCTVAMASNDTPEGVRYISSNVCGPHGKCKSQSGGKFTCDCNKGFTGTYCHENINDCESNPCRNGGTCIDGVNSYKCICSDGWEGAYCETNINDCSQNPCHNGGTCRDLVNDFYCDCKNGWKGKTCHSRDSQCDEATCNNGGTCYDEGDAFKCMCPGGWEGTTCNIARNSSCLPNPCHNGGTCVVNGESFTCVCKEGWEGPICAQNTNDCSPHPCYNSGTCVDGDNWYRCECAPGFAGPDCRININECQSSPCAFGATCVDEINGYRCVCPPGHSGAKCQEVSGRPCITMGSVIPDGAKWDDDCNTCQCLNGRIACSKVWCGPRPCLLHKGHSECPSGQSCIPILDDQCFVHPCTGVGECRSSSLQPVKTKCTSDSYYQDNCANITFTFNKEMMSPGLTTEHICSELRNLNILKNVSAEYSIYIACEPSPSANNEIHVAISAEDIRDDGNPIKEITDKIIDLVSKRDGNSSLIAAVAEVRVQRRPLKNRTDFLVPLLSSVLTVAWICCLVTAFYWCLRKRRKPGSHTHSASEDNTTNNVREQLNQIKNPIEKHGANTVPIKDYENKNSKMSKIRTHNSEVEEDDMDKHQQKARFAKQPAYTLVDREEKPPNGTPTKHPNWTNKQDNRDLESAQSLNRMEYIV
# Experimental: The ability of the purified antibodies to bind to human Jagged1 and Dll1 was determined by FACS analysis. […] Cells were resuspended in PBS containing 2% FCS and seeded at 50000 cells/well into V-bottomed plates. Anti-DLL4 antibodies diluted in PBS containing 2% FCS were added at a final concentration of 5 or 15 μg/ml and plates were incubated for 1 h at 4° C. […] Data was analyzed by comparing the shift in geometric mean fluorescence in the mock-transfected cells to that observed in the Jagged1- or Dll1-transfected cells and is shown in Tables 16 and 17.
# full length human DLL4 [2] = target: T2, full length human DLL4; experiment: FACS competition vs 0.25 µg/ml human Notch1/Fc, HEK293 cells with human DLL4
# Experimental: Further experiments were performed on selected antibodies using HEK293 cells that were stably transfected with either human, mouse or cynomolgus monkey DLL4 using retroviral constructs. In these experiments, anti-DLL4 antibodies (final concentration: 10-0.01 μg/ml) diluted in PBS containing 2% FCS were added to DLL4-expressing HEK 293 cells (50000 cells/well diluted in PBS containing 2% FCS) and incubated for 1 h at 4° C. Subsequently, Alexa-647 labeled human, rat or APC labeled mouse Notch1/Fc (e.g. R&D Systems, catalog #3647-TK-050, 1057-TK-050, 5267-TK-050, respectively) was added at a final concentration of 0.01-0.5 μg/ml and plates were incubated for a further 2 h at 4° C. prior to washing and reading on a FACSCalibur instrument.
# full length human DLL4 [3] = target: T2, full length human DLL4; experiment: FMAT competition, supernatant vs Alexa-647 human Notch1/Fc, 293T cells with human DLL4; FMAT competition with Alexa-647 human Notch1/Fc, native human DLL4 on 293T cells, 4 C, n = 2
# Experimental: Transfected and untransfected 239T cells were reconstituted in PBS containing 2% FCS and 5000 transfected and 17500 non-transfected cells were plated in 20 μl into wells of a 384-well tissue culture plate (Corning Costar, catalog #3712). Subsequently, 20 μl of hybridoma supernatant was added and plates were incubated at 4° C. for 1 h, at which time 20 μl of Alexa-647 labeled human Notch1/Fc was added at a final concentration of 6.7 ng/ml. After a further 3 h incubation at 4° C., the amount of bound Notch1/Fc was determined by reading the fluorescence in each well using an FMAT 8200 instrument (Applied Biosystems). Results are expressed as % inhibitions with the minimum inhibition in the assay being determined by the effects of non-DLL4 binding supernatants prepared in a similar way as described in example 2, and the maximum inhibition being defined as the signal obtained in the presence of a saturating concentration of unlabeled Notch1/Fc. N.T.=not tested
# full length human DLL4 [4] = target: T2, full length human DLL4; experiment: FMAT, hybridoma supernatant, 293T cells with human DLL4; FMAT, hybridoma supernatant, native full length human DLL4 on live 293T cells, room temperature
# Experimental: Cells diluted in PBS containing 2% FBS were seeded at a density of 3000 expressing and 15000 mock transfected cells per well in 384 well plates (Corning Costar, catalog #3712). Immediately after plating, 15 or 20 μl/well of hybridoma supernatants and 10 μl/well of secondary antibody (Goat anti-human IgG Fc Cy5, final concentration 750 ng/ml) were added and plates incubated for 3 h at room temperature prior to reading the fluorescence on the FMAT 8200 instrument (Applied Biosystems). The binding of human Notch1/Fc chimera (R&D systems, catalog #3647-TK), diluted 1:2 from 2.86 μg/ml was used as a positive control for DLL4 and human Notch3/Fc chimera diluted from 10 μg/ml was used a positive control for binding to Jagged1. Results for 12 hybridoma supernatants showing binding of hybridoma supernatants to human/cynomolgus monkey DLL4 and human Jagged are shown in Table 3.
Kd (full length human DLL4 [1]),binding result (human Dll1),binding result (human Jagged1),IC50 (full length human DLL4 [2]),% inhibition n = 2 (full length human DLL4 [3]),Count (full length human DLL4 [4]),FL1 (full length human DLL4 [4]),FL1 x count (full length human DLL4 [4]),Binder
0.999 nM,,,,,,,,"9G8 (antibody, IgG4, V domains shown, Fully human; used for IgG4 rows and where no isotype is printed; also called 9G8 IgG4) VH: QLQLQESGPGLVKPSETLSLSCTVSGGSISSSSSYWGLIRQPPGKGLEWIGSIYYSGSTYYSPSLKSRVSISVDTSKNQFSLKLSSVTAADTAVYFCARQGYGGHPDVFDIWGQGTMVTVSS VL: SSELTQSPSVSVSPGQTARITCSGDKLGDVYVCWYQQKTGQSPVLVIYEDTKRPSGIPERFSGSNSGNTATLTISGTQVMDEADYYCQAWDSTTAVIFGGGTKLTVL"
0.882 nM,no binding,no binding,,,,,,"2H10 (antibody, IgG4, V domains shown, Fully human; used for IgG4 rows and where no isotype is printed; also called 2H10 IgG4) VH: QVQLVESGGGVVQPGRSLRLSCAASGFTFSRHGMHWVRQAPGKGLEWVAVVWFDGSNIYYADSVKGRFTISRDNSKNTLYLQMNSLRAEDTAMYYCARDSRIAAADYWGQGTLVTVSS VL: SYELTQPPSVSVSPGQTVSITCSGDKLGDKYVCWYQQKPGQSPVLVIYQESKRPSGIPERFSGSSSGNTATLTISGTQAMDEADYYCQTWDSSLVVFGGGTKLTVL"
0.516 nM,no binding,no binding,1.62 nM,109%,194,9930,1.93e+06,"4B4 (antibody, IgG4, V domains shown, Fully human; used for IgG4 rows and where no isotype is printed; also called 4B4 IgG4; 4B4.1) VH: QVLLIQSGAEVKKPGASVQVSCKASGYTFTNYGVIWVRQAPGQGLEYMGWISAYNGNTNYAQKLQDRVTMTSDTSTTTAYMELRSLRSDDTAVYYCARELGSSFDYWGQGTLVTVSS VL: SYELTQPPSVSVSPGQTARITCSGDALPKKYAYWYQQKSGQAPVLVIYEDIKRPSGIPERFSGSSSGTMATLTISGAQVEDEADYYCFSTDNSGDHSVFGGGTKLTVL"
0.359 nM,,,1.59 nM,131%,181,10500,1.91e+06,"21H3 (antibody, IgG4, V domains shown, Fully human; used for IgG4 rows and where no isotype is printed; also called 21H3 IgG4) VH: QVQLVQSGAEVKKPGASVKVSCKASGYTFTNYGITWVRQAPGQGPEWMGWISAYNGNTNYAQKLQDRVTVTTDTSTSTAYMELRSLRSDDTAVYYCARDRVPRIPVTTEAFDIWGQGTMVTVSS VL: QSVLTQPPSASGTPGQRVTISCSGSSSNIGSYFVYWYQQLPGTAPKLLIYRNNQRPSGVPDRFSGSESGTSASLAISGLRSEDEADYYCAAWDDSLSGHWVFGGGTRLTVL"
